Data: the supplement of paper PMC7125110
± gives the standard error. This sample holds only a part of the variants without activity.

B1: glmS ribozyme (parent)
chain: AUAAAAGCGCCAGAACUACAGAAAUGUAGUUGACGAGGAGGAGGUUUAUCGAAUUUUCGGCGGAUGCCUCCAAA

Experiments:
Details in all cases: with glucosamine-6-phosphate
[1] = variants of: B1; assay: self-cleavage kobs at 40 uM GlcN6P; higher = faster cleavage; RNA array
Method in brief: (§1)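 Barcoded ribozyme variants on sequenced MiSeq chips were transcribed in situ by E. coli RNA polymerase and followed at 37 °C through a hybridised Cy3 probe. Glucosamine-6-phosphate at 40 μM to 10 mM in HEPES/KCl/Mg(OAc)2 buffer was flowed in, and tiles were imaged over ~14 h. Signals were normalised to baseline and to non-cleaving reference variants, and per-tile medians were fit to one- or two-exponential decays to give kobs. Weighted Michaelis–Menten fits across concentrations gave kcat and KM.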

[2] = variants of: B1; assay: self-cleavage kobs at 160 uM GlcN6P; higher = faster cleavage; RNA array
Method in brief: as §1

[3] = variants of: B1; assay: self-cleavage kobs at 640 uM GlcN6P; higher = faster cleavage; RNA array
Method in brief: as §1

[4] = variants of: B1; assay: self-cleavage kobs at 2500 uM GlcN6P; higher = faster cleavage; RNA array
Method in brief: as §1

[5] = variants of: B1; assay: self-cleavage kobs at 10000 uM GlcN6P; higher = faster cleavage; RNA array
Method in brief: as §1

Variant	self-cleavage kobs at 40 uM GlcN6P [1] [s⁻¹]	self-cleavage kobs at 160 uM GlcN6P [2] [s⁻¹]	self-cleavage kobs at 640 uM GlcN6P [3] [s⁻¹]	self-cleavage kobs at 2500 uM GlcN6P [4] [s⁻¹]	self-cleavage kobs at 10000 uM GlcN6P [5] [s⁻¹]
G29C U56A	4.47e-05 ± 1.2e-05	2.63e-05 ± 1.3e-05	0.000209 ± 3.6e-05	0.000439 ± 8.7e-05	0.00136 ± 0.00016
U31A G35C A36U	< 1e-05		< 1e-05		< 1e-05
U30G C71U	0.00033 ± 5e-05	0.000449 ± 0.00011	0.00135 ± 0.00022	0.00639 ± 0.0013	0.00769 ± 0.0016
U30C U47C	< 1e-05	< 1e-05			
U31C G51U	< 1e-05				< 1e-05
U31C G51C	< 1e-05			< 1e-05	< 1e-05
U31A A36G A52C	< 1e-05				< 1e-05
U30C U31C	3.3e-05 ± 1.1e-05	0.000413 ± 7.4e-05	0.000788 ± 0.00016	0.00125 ± 0.00016	0.00328 ± 0.00041
G32A A36C U45C C70U	< 1e-05				< 1e-05
G29U G37C A39G U56A C61G	< 1e-05				
U30G G62A	< 1e-05	< 1e-05	< 1e-05		< 1e-05
A33C A36G G62U G66A	< 1e-05		< 1e-05	< 1e-05	
G29U U56A	4.68e-05 ± 1.4e-05	9.32e-05 ± 2e-05	0.000211 ± 7e-05		0.00285 ± 0.00045
G32C U57A	< 1e-05				
U30G A36U G51A	< 1e-05				
G29C U56G C70U	6.27e-05 ± 2.2e-05				0.00013 ± 3.2e-05
U31C G44A C71U	< 1e-05	< 1e-05	< 1e-05		
G32C U65A C67A	0.000151 ± 3.6e-05		0.000426 ± 0.0001		0.00023 ± 5.9e-05
U30C G38U C61U	< 1e-05				
U30A G60U	< 1e-05	< 1e-05	< 1e-05		< 1e-05
A33G A64C	< 1e-05	< 1e-05	< 1e-05	< 1e-05	< 1e-05
U30C A33G G66U C71G	< 1e-05				< 1e-05
U30G A33C A42C	< 1e-05				< 1e-05
U31G U54G C67G C68A C70G	4.46e-05 ± 2.2e-05			0.000243 ± 6.9e-05	
U31C C70U	0.000152 ± 1.5e-05	0.000343 ± 4.1e-05	0.000731 ± 6.7e-05	0.00284 ± 0.00074	

Variant	self-cleavage kobs at 40 uM GlcN6P [1] [s⁻¹]	self-cleavage kobs at 160 uM GlcN6P [2] [s⁻¹]	self-cleavage kobs at 640 uM GlcN6P [3] [s⁻¹]	self-cleavage kobs at 2500 uM GlcN6P [4] [s⁻¹]	self-cleavage kobs at 10000 uM GlcN6P [5] [s⁻¹]
U30C G51C	< 1e-05				< 1e-05
G32U C34A A48U C70A	< 1e-05				
G32C G44U U56A	< 1e-05		< 1e-05		< 1e-05
U30C G35C G59C	< 1e-05				< 1e-05
A33G A52C U55G	< 1e-05				
U30A U54A G59U G62U C67U C70U	< 1e-05				< 1e-05
A33C G40A C67G	< 1e-05				
U30C A48U	< 1e-05	< 1e-05	< 1e-05		< 1e-05
G32U A52G C68G	0.000277 ± 9.2e-05				0.000398 ± 9.5e-05
G29U C70U	0.000204 ± 2.4e-05	0.000273 ± 4.2e-05	0.000574 ± 7.2e-05	0.00187 ± 0.00047	0.00452 ± 0.00093
U31A A33G A39U G43A A48U	< 1e-05				< 1e-05
G29U A52U U65A	< 1e-05				
U30G A36U C50G C67U	0.000201 ± 3.9e-05				0.00055 ± 0.00011
U31G A36G U69A	< 1e-05				< 1e-05
U31G U45G C61A	< 1e-05			< 1e-05	< 1e-05
U31C G60C	< 1e-05				< 1e-05
U31C G60A	< 1e-05		< 1e-05		< 1e-05
G29U G32A U65G G66A	< 1e-05				4.66e-05 ± 1.9e-05
G32U C34G C68G	4.91e-05 ± 1.8e-05				3.41e-05 ± 1.6e-05
G32U A36C A53U U54A G63U	< 1e-05				< 1e-05
U30G A36G U54G	< 1e-05				< 1e-05
U31A U55G	0.000331 ± 5.6e-05	0.000659 ± 9.3e-05	0.0036 ± 0.00064	0.00546 ± 0.0012	0.0123 ± 0.0044
U30A U49C U55A	< 1e-05				
A33G C50G G66U	0.000106 ± 2.6e-05		0.000115 ± 5.2e-05	0.000301 ± 0.0001	5.3e-05 ± 2.2e-05
